The values that follow come from publication PMC8574189, “Surface-induced dissociation of protein complexes on a cyclic ion mobility spectrometer†” (The Analyst, 2021).

The target of data set [1] is streptavidin homotetramer (UniProt P22629). Briefly: native MS; nanoelectrospray, 200 mM ammonium acetate, or charge-reduced in 160 mM ammonium acetate with 40 mM TEAA or EDDA; 5–10 μM protein complex; cyclic IMS (cIMS) and Synapt G2; TRAP with 14 equivalents of trp.
Data set [2] concerns the target alcohol dehydrogenase tetramer (from saccharomyces cerevisiae) (saccharomyces cerevisiae) (UniProt P00330). The data set is described as above.
The target in data set [3] is αβγHis heterotrimer of His-tagged toyocamycin nitrile hydratase (TNH). The description is as above.
The data set “native MS” concerns the molecule itself. Briefly: native MS.
Data set [4] deals with the molecule itself. The data set is described as follows: native MS; nanoelectrospray, 200 mM ammonium acetate, or charge-reduced in 160 mM ammonium acetate with 40 mM TEAA or EDDA; 5–10 μM protein complex; cyclic IMS (cIMS) and Synapt G2; TRAP with 14 equivalents of trp.
Data set [5] addresses T1, C-reactive protein pentamer, P02741.
T1 chain: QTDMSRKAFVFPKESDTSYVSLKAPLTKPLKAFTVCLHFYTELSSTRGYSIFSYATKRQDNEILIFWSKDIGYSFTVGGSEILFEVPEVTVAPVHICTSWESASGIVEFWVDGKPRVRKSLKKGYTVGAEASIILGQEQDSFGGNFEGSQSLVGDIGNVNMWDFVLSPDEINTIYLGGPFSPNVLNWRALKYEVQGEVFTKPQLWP
The description is as above. The note with it: remark: other sources report otherwise.

With “streptavidin homotetramer (from UniProt P22629 25-183) (natural protein)”, the stoichiometry N in data set [1] turned out to be 4. Consider “alcohol dehydrogenase tetramer (from saccharomyces cerevisiae) (from UniProt P00330 1-348) (enzyme)”, for which, in data set [2], the stoichiometry N was determined as 4. As to “αβγHis heterotrimer of His-tagged toyocamycin nitrile hydratase (TNH) (complex)”, in data set [3], the stoichiometry N is 2.

B1: cholera toxin B homopentamer (natural protein)
chain: TPQNITDLCAEYHNTQIYTLNDKIFSYTESLAGKREMAIITFKNGAIFQVEVPGSQHIDSQKKAIERMKDTLRIAYLTEAKVEKLCVWNNKTPHAIAAISMAN
notes: also called 58 kDa cholera toxin B homopentamer
Take B1: the “stoichiometry N” value in the data set “native MS” was 5.

B2: phosphorylase B dimer from rabbit muscle (enzyme, UniProt P00489 1-843, looked up)
chain: MSRPLSDQEKRKQISVRGLAGVENVTELKKNFNRHLHFTLVKDRNVATPRDYYFALAHTVRDHLVGRWIRTQQHYYEKDPKRIYYLSLEFYMGRTLQNTMVNLALENACDEATYQLGLDMEELEEIEEDAGLGNGGLGRLAACFLDSMATLGLAAYGYGIRYEFGIFNQKICGGWQMEEADDWLRYGNPWEKARPEFTLPVHFYGRVEHTSQGAKWVDTQVVLAMPYDTPVPGYRNNVVNTMRLWSAKAPNDFNLKDFNVGGYIQAVLDRNLAENISRVLYPNDNFFEGKELRLKQEYFVVAATLQDIIRRFKSSKFGCRDPVRTNFDAFPDKVAIQLNDTHPSLAIPELMRVLVDLERLDWDKAWEVTVKTCAYTNHTVLPEALERWPVHLLETLLPRHLQIIYEINQRFLNRVAAAFPGDVDRLRRMSLVEEGAVKRINMAHLCIAGSHAVNGVARIHSEILKKTIFKDFYELEPHKFQNKTNGITPRRWLVLCNPGLAEIIAERIGEEYISDLDQLRKLLSYVDDEAFIRDVAKVKQENKLKFAAYLEREYKVHINPNSLFDVQVKRIHEYKRQLLNCLHVITLYNRIKKEPNKFVVPRTVMIGGKAAPGYHMAKMIIKLITAIGDVVNHDPVVGDRLRVIFLENYRVSLAEKVIPAADLSEQISTAGTEASGTGNMKFMLNGALTIGTMDGANVEMAEEAGEENFFIFGMRVEDVDRLDQRGYNAQEYYDRIPELRQIIEQLSSGFFSPKQPDLFKDIVNMLMHHDRFKVFADYEEYVKCQERVSALYKNPREWTRMVIRNIATSGKFSSDRTIAQYAREIWGVEPSRQRLPAPDEKIP
notes: glycogen phosphorylase b from rabbit muscle; 195 kDa dimer; also called PHB; source: from rabbit muscle, bought: Sigma Aldrich (lyophilized powder)
Turning to B2, the “stoichiometry N” value in data set [4] is 2.

B3: C-reactive protein pentamer, P02741 19-224 (natural protein)
chain: QTDMSRKAFVFPKESDTSYVSLKAPLTKPLKAFTVCLHFYTELSSTRGYSIFSYATKRQDNEILIFWSKDIGYSFTVGGSEILFEVPEVTVAPVHICTSWESASGIVEFWVDGKPRVRKSLKKGYTVGAEASIILGQEQDSFGGNFEGSQSLVGDIGNVNMWDFVLSPDEINTIYLGGPFSPNVLNWRALKYEVQGEVFTKPQLWP
Turning to B3, in data set [5], the stoichiometry N is 5.

B4: trp RNA binding attenuation protein (TRAP) homo-11mer (natural protein, UniProt Q9X6J6 1-74, looked up)
chain: MYTNSDFVVIKALEDGVNVIGLTRGADTRFHHSEKLDKGEVLIAQFTEHTSAIKVRGKAYIQTRHGVIESEGKK
notes: 91 kDa homo-11mer; it could be B. subtilis; also called holoTRAP; source: obtained from the Foster group (The Ohio State University) and the Gollnick group (State University of NY, Buffalo); copies: 11
B4: the “stoichiometry N” value in data set [4] stood at 11.

In general, stoichiometry N refers to the number of molecules, sites or subunits per partner or assembly.
